To fix the notation:
T1: Microfibril-associated glycoprotein 4 (human, UniProt P55083 22-255, intermolecular disulphide bond between C34 of two monomers; N-glycosylated at N87 and N137 (cryo-EM density))
T1 chain: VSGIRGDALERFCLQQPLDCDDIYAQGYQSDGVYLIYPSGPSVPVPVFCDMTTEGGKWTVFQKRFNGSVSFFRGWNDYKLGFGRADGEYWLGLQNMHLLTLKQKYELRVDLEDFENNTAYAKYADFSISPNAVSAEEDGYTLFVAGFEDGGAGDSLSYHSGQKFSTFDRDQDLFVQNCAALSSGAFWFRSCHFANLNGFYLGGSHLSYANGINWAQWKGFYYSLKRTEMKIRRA

B1: latent transforming growth factor beta binding protein-4, long isoform (natural protein)
chain: ASPSPSPSQVVEVPGVPSRPASVAVCRCCPGQTSRRSRCIRAFCRVRSCQPKKCAGPQRCLNPVPAVPSPSPSVRKRQVSLNWQPLTLQEARALLKRRRPRGPGGRGLLRRRPPQRAPAGKAPVLCPLICHNGGVCVKPDRCLCPPDFAGKFCQLHSSGARPPAPAVPGLTRSVYTMPLANHRDDEHGVASMVSVHVEHPQEASVVVHQVERVSGPWEEADAEAVARAEAAARAEAAAPYTVLAQSAPREDGYSDASGFGYCFRELRGGECASPLPGLRTQEVCCRGAGLAWGVHDCQLCSERLGNSERVSAPDGPCPTGFERVNGSCEDVDECATGGRCQHGECANTRGGYTCVCPDGFLLDSSRSSCISQHVISEAKGPCFRVLRDGGCSLPILRNITKQICCCSRVGKAWGRGCQLCPPFGSEGFREICPAGPGYHYSASDLRYNTRPLGQEPPRVSLSQPRTLPATSRPSAGFLPTHRLEPRPEPRPDPRPGPELPLPSIPAWTGPEIPESGPSSGMCQRNPQVCGPGRCISRPSGYTCACDSGFRLSPQGTRCIDVDECRRVPPPCAPGRCENSPGSFRCVCGPGFRAGPRAAECLDVDECHRVPPPCDLGRCENTPGSFLCVCPAGYQAAPHGASCQDVDECTQSPGLCGRGACKNLPGSFRCVCPAGFRGSACEEDVDECAQEPPPCGPGRCDNTAGSFHCACPAGFRSRGPGAPCQDVDECARSPPPCTYGRCENTEGSFQCVCPMGFQPNTAGSECEDVDECENHLACPGQECVNSPGSFQCRTCPSGHHLHRGRCTDVDECSSGAPPCGPHGHCTNTEGSFRCSCAPGYRAPSGRPGPCADVNECLEGDFCFPHGECLNTDGSFACTCAPGYRPGPRGASCLDVDECSEEDLCQSGICTNTDGSFECICPPGHRAGPDLASCLDVDECRERGPALCGSQRCENSPGSYRCVRDCDPGYHAGPEGTCDDVDECQEYGPEICGAQRCENTPGSYRCTPACDPGYQPTPGGGCQDVDECRNRSFCGAHAVCQNLPGSFQCLCDQGYEGARDGRHCVDVNECETLQGVCGAALCENVEGSFLCVCPNSPEEFDPMTGRCVPPRTSAGTFPGSQPQAPASPVLPARPPPPPLPRRPSTPRQGPVGSGRRECYFDTAAPDACDNILARNVTWQECCCTVGEGWGSGCRIQQCPGTETAEYQSLCPHGRGYLAPSGDLSLRRDVDECQLFRDQVCKSGVCVNTAPGYSCYCSNGYYYHTQRLECIDNDECADEEPACEGGRCVNTVGSYHCTCEPPLVLDGSQRRCVSNESQSLDDNLGVCWQEVGADLVCSHPRLDRQATYTECCCLYGEAWGMDCALCPAQDSDDFEALCNVLRPPAYSPPRPGGFGLPYEYGPDLGPPYQGLPYGPELYPPPALPYDPYPPPPGPFARREAPYGAPRFDMPDFEDDGGPYGESEAPAPPGPGTRWPYRSRDTRRSFPEPEEPPEGGSYAGSLAEPYEELEAEECGILDGCTNGRCVRVPEGFTCRCFDGYRLDMTRMACVDINECDEAEAASPLCVNARCLNTDGSFRCICRPGFAPTHQPHHCAPARPRA
B2: fibulin-5 (natural protein)
chain: QAQCTNGFDLDRQSGQCLDIDECRTIPEACRGDMMCVNQNGGYLCIPRTNPVYRGPYSNPYSTPYSGPYPAAAPPLSAPNYPTISRPLICRFGYQMDESNQCVDVDECATDSHQCNPTQICINTEGGYTCSCTDGYWLLEGQCLDIDECRYGYCQQLCANVPGSYSCTCNPGFTLNEDGRSCQDVNECATENPCVQTCVNTYGSFICRCDPGYELEEDGVHCSDMDECSFSEFLCQHECVNQPGTYFCSCPPGYILLDDNRSCQDINECEHRNHTCNLQQTCYNLQGGFKCIDPIRCEEPYLRISDNRCMCPAENPGCRDQPFTILYRDMDVVSGRSVPADIFQMQATTRYPGAYYIFQIKSGNEGREFYMRQTGPISATLVMTRPIKGPREIQLDLEMITVNTVINFRGSSVIRLRIYVSQYPF
B3: latent transforming growth factor beta binding protein-4, short isoform (natural protein)
chain: RLGERLRVRFTPVVCGLRCVHGPTGSRCTPTCAPRNATSVDSGAPGGAAPGGPGFRAFLCPLICHNGGVCVKPDRCLCPPDFAGKFCQLHSSGARPPAPAVPGLTRSVYTMPLANHRDDEHGVASMVSVHVEHPQEASVVVHQVERVSGPWEEADAEAVARAEAAARAEAAAPYTVLAQSAPREDGYSDASGFGYCFRELRGGECASPLPGLRTQEVCCRGAGLAWGVHDCQLCSERLGNSERVSAPDGPCPTGFERVNGSCEDVDECATGGRCQHGECANTRGGYTCVCPDGFLLDSSRSSCISQHVISEAKGPCFRVLRDGGCSLPILRNITKQICCCSRVGKAWGRGCQLCPPFGSEGFREICPAGPGYHYSASDLRYNTRPLGQEPPRVSLSQPRTLPATSRPSAGFLPTHRLEPRPEPRPDPRPGPELPLPSIPAWTGPEIPESGPSSGMCQRNPQVCGPGRCISRPSGYTCACDSGFRLSPQGTRCIDVDECRRVPPPCAPGRCENSPGSFRCVCGPGFRAGPRAAECLDVDECHRVPPPCDLGRCENTPGSFLCVCPAGYQAAPHGASCQDVDECTQSPGLCGRGACKNLPGSFRCVCPAGFRGSACEEDVDECAQEPPPCGPGRCDNTAGSFHCACPAGFRSRGPGAPCQDVDECARSPPPCTYGRCENTEGSFQCVCPMGFQPNTAGSECEDVDECENHLACPGQECVNSPGSFQCRTCPSGHHLHRGRCTDVDECSSGAPPCGPHGHCTNTEGSFRCSCAPGYRAPSGRPGPCADVNECLEGDFCFPHGECLNTDGSFACTCAPGYRPGPRGASCLDVDECSEEDLCQSGICTNTDGSFECICPPGHRAGPDLASCLDVDECRERGPALCGSQRCENSPGSYRCVRDCDPGYHAGPEGTCDDVDECQEYGPEICGAQRCENTPGSYRCTPACDPGYQPTPGGGCQDVDECRNRSFCGAHAVCQNLPGSFQCLCDQGYEGARDGRHCVDVNECETLQGVCGAALCENVEGSFLCVCPNSPEEFDPMTGRCVPPRTSAGTFPGSQPQAPASPVLPARPPPPPLPRRPSTPRQGPVGSGRRECYFDTAAPDACDNILARNVTWQECCCTVGEGWGSGCRIQQCPGTETAEYQSLCPHGRGYLAPSGDLSLRRDVDECQLFRDQVCKSGVCVNTAPGYSCYCSNGYYYHTQRLECIDNDECADEEPACEGGRCVNTVGSYHCTCEPPLVLDGSQRRCVSNESQSLDDNLGVCWQEVGADLVCSHPRLDRQATYTECCCLYGEAWGMDCALCPAQDSDDFEALCNVLRPPAYSPPRPGGFGLPYEYGPDLGPPYQGLPYGPELYPPPALPYDPYPPPPGPFARREAPYGAPRFDMPDFEDDGGPYGESEAPAPPGPGTRWPYRSRDTRRSFPEPEEPPEGGSYAGSLAEPYEELEAEECGILDGCTNGRCVRVPEGFTCRCFDGYRLDMTRMACVDINECDEAEAASPLCVNARCLNTDGSFRCICRPGFAPTHQPHHCAPARPRA
B4: N-terminal half of LTBP4L (domain or fragment)
chain: ASPSPSPSQVVEVPGVPSRPASVAVCRCCPGQTSRRSRCIRAFCRVRSCQPKKCAGPQRCLNPVPAVPSPSPSVRKRQVSLNWQPLTLQEARALLKRRRPRGPGGRGLLRRRPPQRAPAGKAPVLCPLICHNGGVCVKPDRCLCPPDFAGKFCQLHSSGARPPAPAVPGLTRSVYTMPLANHRDDEHGVASMVSVHVEHPQEASVVVHQVERVSGPWEEADAEAVARAEAAARAEAAAPYTVLAQSAPREDGYSDASGFGYCFRELRGGECASPLPGLRTQEVCCRGAGLAWGVHDCQLCSERLGNSERVSAPDGPCPTGFERVNGSCEDVDECATGGRCQHGECANTRGGYTCVCPDGFLLDSSRSSCISQHVISEAKGPCFRVLRDGGCSLPILRNITKQICCCSRVGKAWGRGCQLCPPFGSEGFREICPAGPGYHYSASDLRYNTRPLGQEPPRVSLSQPRTLPATSRPSAGFLPTHRLEPRPEPRPDPRPGPELPLPSIPAWTGPEIPESGPSSGMCQRNPQVCGPGRCISRPSGYTCACDSGFRLSPQGTRCIDVDECRRVPPPCAPGRCENSPGSFRCVCGPGFRAGPRAAECLDVDECHRVPPPCDLGRCENTPGSFLCVCPAGYQAAPHGASCQDVDECTQSPGLCGRGACKNLPGSFRCVCPAGFRGSACEEDVDECAQEPPPCGPGRCDNTAGSFHCACPAGFRSRGPGAPCQ
B5: fibulin-4 (natural protein)
chain: SASPQDSEEPDSYTECTDGYEWDPDSQHCRDVNECLTIPEACKGEMKCINHYGGYLCLPRSAAVINDLHGEGPPPPVPPAQHPNPCPPGYEPDDQDSCVDVDECAQALHDCRPSQDCHNLPGSYQCTCPDGYRKIGPECVDIDECRYRYCQHRCVNLPGSFRCQCEPGFQLGPNNRSCVDVNECDMGAPCEQRCFNSYGTFLCRCHQGYELHRDGFSCSDIDECSYSSYLCQYRCINEPGRFSCHCPQGYQLLATRLCQDIDECESGAHQCSEAQTCVNFHGGYRCVDTNRCVEPYIQVSENRCLCPASNPLCREQPSSIVHRYMTITSERSVPADVFQIQATSVYPGAYNAFQIRAGNSQGDFYIRQINNVSAMLVLARPVTGPREYVLDLEMVTMNSLMSYRASSVLRLTVFVGAYTF
B6: fibrillin-1 centre region fragment rF1M (domain or fragment)
chain: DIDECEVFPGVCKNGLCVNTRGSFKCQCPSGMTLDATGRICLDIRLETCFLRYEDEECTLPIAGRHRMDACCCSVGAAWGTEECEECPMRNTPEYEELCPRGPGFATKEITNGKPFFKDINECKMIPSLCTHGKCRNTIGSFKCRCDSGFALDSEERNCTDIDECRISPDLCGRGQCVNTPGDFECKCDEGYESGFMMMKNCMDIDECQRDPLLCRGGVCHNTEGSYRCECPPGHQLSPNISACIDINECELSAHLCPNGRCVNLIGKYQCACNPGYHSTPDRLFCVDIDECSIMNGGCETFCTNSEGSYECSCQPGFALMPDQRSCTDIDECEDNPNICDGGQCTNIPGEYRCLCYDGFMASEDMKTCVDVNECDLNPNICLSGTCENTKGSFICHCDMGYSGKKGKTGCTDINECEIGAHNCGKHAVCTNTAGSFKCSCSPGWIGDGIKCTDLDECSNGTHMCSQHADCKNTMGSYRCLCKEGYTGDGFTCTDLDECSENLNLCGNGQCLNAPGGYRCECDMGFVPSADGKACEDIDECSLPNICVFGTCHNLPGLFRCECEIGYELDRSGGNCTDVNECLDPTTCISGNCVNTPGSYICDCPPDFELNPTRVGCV
modifications: limits not printed (cited paper); approximate centre region, set at calcium-binding EGF domain boundaries from the domain before TB4 to the one before TB5; Ca2+ bound, HEK-type glycosylation and disulphides likely
B7: recombinant N-terminal half of fibrillin-1 (domain or fragment)
chain: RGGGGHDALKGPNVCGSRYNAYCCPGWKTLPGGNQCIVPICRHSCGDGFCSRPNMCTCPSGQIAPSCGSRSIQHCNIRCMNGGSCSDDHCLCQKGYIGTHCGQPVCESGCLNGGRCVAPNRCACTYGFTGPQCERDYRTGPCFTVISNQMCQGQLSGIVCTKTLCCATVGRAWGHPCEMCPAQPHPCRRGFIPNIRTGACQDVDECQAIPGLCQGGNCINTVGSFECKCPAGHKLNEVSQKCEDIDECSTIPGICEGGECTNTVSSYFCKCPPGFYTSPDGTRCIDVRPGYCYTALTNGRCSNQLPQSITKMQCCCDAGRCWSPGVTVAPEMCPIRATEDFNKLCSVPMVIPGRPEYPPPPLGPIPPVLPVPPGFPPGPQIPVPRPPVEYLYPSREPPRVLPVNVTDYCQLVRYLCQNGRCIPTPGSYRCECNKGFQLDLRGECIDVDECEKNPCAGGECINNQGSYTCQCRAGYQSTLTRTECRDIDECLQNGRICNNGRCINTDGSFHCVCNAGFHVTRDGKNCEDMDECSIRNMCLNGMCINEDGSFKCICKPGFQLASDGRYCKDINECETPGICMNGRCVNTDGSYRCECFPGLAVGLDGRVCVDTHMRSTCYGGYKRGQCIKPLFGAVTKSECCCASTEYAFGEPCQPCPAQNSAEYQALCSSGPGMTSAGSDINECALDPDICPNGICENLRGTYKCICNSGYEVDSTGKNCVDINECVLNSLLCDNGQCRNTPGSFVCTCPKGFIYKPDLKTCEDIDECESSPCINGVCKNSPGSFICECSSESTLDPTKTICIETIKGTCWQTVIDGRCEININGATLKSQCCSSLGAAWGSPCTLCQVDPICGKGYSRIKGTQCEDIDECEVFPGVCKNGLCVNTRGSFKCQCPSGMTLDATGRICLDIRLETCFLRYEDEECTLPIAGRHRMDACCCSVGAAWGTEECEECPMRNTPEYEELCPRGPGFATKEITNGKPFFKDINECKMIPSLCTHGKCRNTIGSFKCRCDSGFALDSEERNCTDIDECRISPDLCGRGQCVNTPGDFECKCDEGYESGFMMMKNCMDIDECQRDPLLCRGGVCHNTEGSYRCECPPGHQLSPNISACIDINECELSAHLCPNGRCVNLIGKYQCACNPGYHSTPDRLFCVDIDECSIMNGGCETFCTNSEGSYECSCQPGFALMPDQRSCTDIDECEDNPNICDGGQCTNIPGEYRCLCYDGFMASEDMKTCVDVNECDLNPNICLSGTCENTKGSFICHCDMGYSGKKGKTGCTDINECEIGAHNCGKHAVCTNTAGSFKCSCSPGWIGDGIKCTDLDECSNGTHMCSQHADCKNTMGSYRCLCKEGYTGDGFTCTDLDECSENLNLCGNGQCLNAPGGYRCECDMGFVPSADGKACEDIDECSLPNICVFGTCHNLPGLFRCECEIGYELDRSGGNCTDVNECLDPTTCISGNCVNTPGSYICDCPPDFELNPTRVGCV
B8: recombinant human tropoelastin (natural protein)
chain: GGVPGAIPGGVPGGVFYPGAGLGALGGGALGPGGKPLKPVPGGLAGAGLGAGLGAFPAVTFPGALVPGGVADAAAAYKAAKAGAGLGGVPGVGGLGVSAGAVVPQPGAGVKPGKVPGVGLPGVYPGGVLPGARFPGVGVLPGVPTGAGVKPKAPGVGGAFAGIPGVGPFGGPQPGVPLGYPIKAPKLPGGYGLPYTTGKLPYGYGPGGVAGAAGKAGYPTGTGVGPQAAAAAAAKAAAKFGAGAAGVLPGVGGAGVPGVPGAIPGIGGIAGVGTPAAAAAAAAAAKAAKYGAAAGLVPGGPGFGPGVVGVPGAGVPGVGVPGAGIPVVPGAGIPGAAVPGVVSPEAAAKAAAKAAKYGARPGVGVGGIPTYGVGAGGFPGFGVGVGGIPGVAGVPGVGGVPGVGGVPGVGISPEAQAAAAAKAAKYGAAGAGVLGGLVPGAPGAVPGVPGTGGVPGVGTPAAAAAKAAAKAAQFGLVPGVGVAPGVGVAPGVGVAPGVGLAPGVGVAPGVGVAPGVGVAPGIGPGGVAAAAKSAAKVAAKAQLRAAAGLGAGIPGLGVGVGVPGLGVGAGVPGLGVGAGVPGFGAGADEGVRRSLSPELREGDPSSSQHLPSTPSSPRVPGALAAAKAAKYGAAVPGVLGGLGALGGVGIPGGVVGAGPAAAAAAAKAAAKAAQFGLVGAAGLGGLGVGGLGVPGVGGLGGIPPAAAAKAAKYGAAGLGGVLGGAGQFPLGGVAARPGFGLSPIFPGGACLGKACGRKRK

One test addresses T1, Microfibril-associated glycoprotein 4. The test can be described thus: SPR; -Ca2+. A general note: In SPR one partner is held on a chip, and binding of the other changes the refractive index at the surface.
In general, Kd refers to the free concentration of one partner at which half of the binding sites on the other are occupied at equilibrium, for simple one-to-one binding. A high value points to a looser complex. For B1, the Kd stood at 20 nM. That is a double-digit nanomolar value.

With B2, the Kd was 3400 nM. Against the preceding molecule, the Kd is about 170-fold higher.

Regarding B3, binding was characterised by a dissociation constant (Kd) of 22 nM. This Kd lies about 150-fold lower than the previous one.

The target is the same in another test. Briefly: SPR; Ca2+.
For the molecule B4, the equilibrium dissociation constant (Kd) was 19 nM.

A further test concerns the target MFAP4_(C34S) (human, UniProt P55083 22-255, C34S). Briefly: SPR; +Ca2+.
B1 yielded a Kd of 15 nM.

B5 registered a Kd of 90 nM. Compared with the last molecule, the Kd is about 6-fold higher.

The molecule B6 had a Kd of 1 nM. This Kd lies about 90-fold lower than the previous one.

On to B7, for which the Kd was 1.5 nM.

Take B8: the affinity, expressed as Kd, was 38 nM.

B3 registered a Kd of 19 nM. This Kd lies about 2-fold lower than the previous one.

(Values after article PMC11091212 (2024).)
